Assay results reported in US8715959B2, “Substitution mutant receptors and their use in a nuclear receptor-based inducible gene expression system” (priority 2001, dated 2014).

Tested on: CfEcR-DEF
Experiment: GAL4/mutant CfEcR-DEF + VP16/LmUSP-EF GAL4-driven luciferase reporter transactivation in NIH3T3 cells
Assay type: cell-based, Choristoneura fumiferana
Settings: NIH3T3 cells, relative to Gal4/wild-type CfEcR-DEF switch activity; for Fold increase over WT, 2.5 μM GS™-E: 2.5 μM GS™-E non-steroidal ligand; for Fold increase over WT, 2.5 μM PonA: 2.5 μM PonA steroidal ligand; for Fold increase over WT, 10 nM GS™-E: 10 nM GS™-E non-steroidal ligand; for Fold increase over WT, 10 nM PonA: 10 nM PonA steroidal ligand
Procedure: DNAs corresponding to the various switch constructs outlined in Example 1, specifically switches 1.1-1.13, were transfected into mouse NIH3T3 cells (ATCC) or L57 cells (Dr. Peter Cherbas; Indiana University) as follows. Standard methods for culture and maintenance of the cells were followed. […] Superfect™ (Qiagen Inc.) was used for 3T3 cells and Lipofectamine™ (LifeTechnologies) was used for L57 cells as the transfection reagents. For 12-well plates, 4 μl of Superfect™ or Lipofectamine™ was mixed with 100 μl of growth medium. One μg of reporter construct and 0.25 μg of each receptor construct of the receptor pair to be analyzed were added to the transfection mix. […] The cells were harvested and reporter activity was assayed.
Cells were harvested 40 hours after adding ligands. […] Twenty μl of lysate were assayed.
Briefly, Applicants mutated amino acid residues predicted to be critical for ecdysteroid binding into alanine and created GAL4/mutantCfEcR-DEF cDNA gene expression cassettes as described in Example 1 above using the Quikchange PCR-mediated site-directed mutagenesis kit (Stratagene, La Jolla, Calif.). The mutated and the WT cDNAs were tested in GAL4-driven luciferase reporter assays.
DNAs corresponding to the various switch constructs outlined in Example 1, specifically switches 1.1-1.2, were transfected into mouse NIH3T3 cells (ATCC) as follows. […] Two μl of Superfect™ was mixed with 100 μl of growth medium and 50 ng of either GAL4/wild-type EcR or Gal4/mutant EcR cassette, 50 ng of VP16/LmUSP-EF and 200 ng of pFRLuc were added to the transfection mix. […] The cells were harvested and reporter activity was assayed as described above.

| Molecule | Fold increase over WT, 2.5 μM GS™-E | Fold increase over WT, 2.5 μM PonA | Fold increase over WT, 10 nM GS™-E | Fold increase over WT, 10 nM PonA |
| --- | --- | --- | --- | --- |
| V96T: CfEcR-DEF LBD substitution mutant, Valine (V) to Threonine (T) (protein, listed as Choristoneura fumiferana) LTANQQFLIARLIWYQDGYEQPSDEDLKRITQTWQQADDENEESDTPFRQITEMTILTVQLIVEFAKGLPGFAKISQPDQITLLKACSSEVMMLRTARRYDAASDSVLFANNQAYTRDNYRKAGMAYVIEDLLHFCRCMYSMALDNIHYALLTAVVIFSDRPGLEQPQLVEEIQRYYLNTLRIYILNQLSGSARSSVIYGKILSILSELRTLGMQNSNMCISLKLKNRKLPPFLEEIWDV | 0.018 fold | 45 fold | – | – |
| T52V/V107I/R175E: CfEcR-DEF LBD triple mutant, T52V, V107I and R175E (protein, listed as Choristoneura fumiferana) LTANQQFLIARLIWYQDGYEQPSDEDLKRITQTWQQADDENEESDTPFRQIVEMTILTVQLIVEFAKGLPGFAKISQPDQITLLKACSSEVMMLRVARRYDAASDSILFANNQAYTRDNYRKAGMAYVIEDLLHFCRCMYSMALDNIHYALLTAVVIFSDRPGLEQPQLVEEIQEYYLNTLRIYILNQLSGSARSSVIYGKILSILSELRTLGMQNSNMCISLKLKNRKLPPFLEEIWDV | – | – | 62.8 fold | 136.6 fold |
| T52A/V107I/R175E: CfEcR-DEF LBD triple mutant, T52A, V107I and R175E (protein, listed as Choristoneura fumiferana) LTANQQFLIARLIWYQDGYEQPSDEDLKRITQTWQQADDENEESDTPFRQIAEMTILTVQLIVEFAKGLPGFAKISQPDQITLLKACSSEVMMLRVARRYDAASDSILFANNQAYTRDNYRKAGMAYVIEDLLHFCRCMYSMALDNIHYALLTAVVIFSDRPGLEQPQLVEEIQEYYLNTLRIYILNQLSGSARSSVIYGKILSILSELRTLGMQNSNMCISLKLKNRKLPPFLEEIWDV | – | – | 2.3 fold | 20.3 fold |
| V96M: CfEcR-DEF LBD substitution mutant, Valine (V) to Methionine (M) (protein, listed as Choristoneura fumiferana) LTANQQFLIARLIWYQDGYEQPSDEDLKRITQTWQQADDENEESDTPFRQITEMTILTVQLIVEFAKGLPGFAKISQPDQITLLKACSSEVMMLRMARRYDAASDSVLFANNQAYTRDNYRKAGMAYVIEDLLHFCRCMYSMALDNIHYALLTAVVIFSDRPGLEQPQLVEEIQRYYLNTLRIYILNQLSGSARSSVIYGKILSILSELRTLGMQNSNMCISLKLKNRKLPPFLEEIWDV | 122 fold | 3.37 fold | – | – |
| R175E: CfEcR-DEF LBD substitution mutant, Arginine (R) to Glutamine (E) (protein, listed as Choristoneura fumiferana) LTANQQFLIARLIWYQDGYEQPSDEDLKRITQTWQQADDENEESDTPFRQITEMTILTVQLIVEFAKGLPGFAKISQPDQITLLKACSSEVMMLRVARRYDAASDSVLFANNQAYTRDNYRKAGMAYVIEDLLHFCRCMYSMALDNIHYALLTAVVIFSDRPGLEQPQLVEEIQEYYLNTLRIYILNQLSGSARSSVIYGKILSILSELRTLGMQNSNMCISLKLKNRKLPPFLEEIWDV | – | – | 22.0 fold | 11.3 fold |
| V107I: CfEcR-DEF LBD substitution mutant, Valine (V) to Isoleucine (protein, listed as Choristoneura fumiferana) LTANQQFLIARLIWYQDGYEQPSDEDLKRITQTWQQADDENEESDTPFRQITEMTILTVQLIVEFAKGLPGFAKISQPDQITLLKACSSEVMMLRVARRYDAASDSILFANNQAYTRDNYRKAGMAYVIEDLLHFCRCMYSMALDNIHYALLTAVVIFSDRPGLEQPQLVEEIQRYYLNTLRIYILNQLSGSARSSVIYGKILSILSELRTLGMQNSNMCISLKLKNRKLPPFLEEIWDV | – | – | 12.4 fold | 26.6 fold |
| T52I: CfEcR-DEF LBD substitution mutant, Threonine (T) to Isoleucine (I) (protein, listed as Choristoneura fumiferana) LTANQQFLIARLIWYQDGYEQPSDEDLKRITQTWQQADDENEESDTPFRQIIEMTILTVQLIVEFAKGLPGFAKISQPDQITLLKACSSEVMMLRVARRYDAASDSVLFANNQAYTRDNYRKAGMAYVIEDLLHFCRCMYSMALDNIHYALLTAVVIFSDRPGLEQPQLVEEIQRYYLNTLRIYILNQLSGSARSSVIYGKILSILSELRTLGMQNSNMCISLKLKNRKLPPFLEEIWDV | 8 fold | 8 fold | – | – |
| V107I/Y127E: CfEcR-DEF LBD double mutant, Valine (V) to Isoleucine (I) and Tyrosine (Y) to Glutamine (E) (protein, listed as Choristoneura fumiferana) LTANQQFLIARLIWYQDGYEQPSDEDLKRITQTWQQADDENEESDTPFRQITEMTILTVQLIVEFAKGLPGFAKISQPDQITLLKACSSEVMMLRVARRYDAASDSILFANNQAYTRDNYRKAGMAEVIEDLLHFCRCMYSMALDNIHYALLTAVVIFSDRPGLEQPQLVEEIQRYYLNTLRIYILNQLSGSARSSVIYGKILSILSELRTLGMQNSNMCISLKLKNRKLPPFLEEIWDV | – | – | 314.6 fold | 35.8 fold |
| Y127E/R175E: CfEcR-DEF LBD double mutant, Y127E and R175E (protein, listed as Choristoneura fumiferana) LTANQQFLIARLIWYQDGYEQPSDEDLKRITQTWQQADDENEESDTPFRQITEMTILTVQLIVEFAKGLPGFAKISQPDQITLLKACSSEVMMLRVARRYDAASDSVLFANNQAYTRDNYRKAGMAEVIEDLLHFCRCMYSMALDNIHYALLTAVVIFSDRPGLEQPQLVEEIQEYYLNTLRIYILNQLSGSARSSVIYGKILSILSELRTLGMQNSNMCISLKLKNRKLPPFLEEIWDV | – | – | 622.8 fold | 42.2 fold |
| T52V: CfEcR-DEF LBD substitution mutant, Threonine (T) to Valine (V) (protein, listed as Choristoneura fumiferana) LTANQQFLIARLIWYQDGYEQPSDEDLKRITQTWQQADDENEESDTPFRQIVEMTILTVQLIVEFAKGLPGFAKISQPDQITLLKACSSEVMMLRVARRYDAASDSVLFANNQAYTRDNYRKAGMAYVIEDLLHFCRCMYSMALDNIHYALLTAVVIFSDRPGLEQPQLVEEIQRYYLNTLRIYILNQLSGSARSSVIYGKILSILSELRTLGMQNSNMCISLKLKNRKLPPFLEEIWDV | 17.3 fold | 35.7 fold | – | – |
| V107I/YL27E/R175E: CfEcR-DEF LBD triple mutant, V107I, Y127E and R175E (protein, listed as Choristoneura fumiferana) LTANQQFLIARLIWYQDGYEQPSDEDLKRITQTWQQADDENEESDTPFRQITEMTILTVQLIVEFAKGLPGFAKISQPDQITLLKACSSEVMMLRVARRYDAASDSILFANNQAYTRDNYRKAGMAEVIEDLLHFCRCMYSMALDNIHYALLTAVVIFSDRPGLEQPQLVEEIQEYYLNTLRIYILNQLSGSARSSVIYGKILSILSELRTLGMQNSNMCISLKLKNRKLPPFLEEIWDV | – | – | 124.3 fold | 122.3 fold |
| V96A/V107I/R175E: CfEcR-DEF LBD triple mutant, V96A, V107I and R175E (protein, listed as Choristoneura fumiferana) LTANQQFLIARLIWYQDGYEQPSDEDLKRITQTWQQADDENEESDTPFRQITEMTILTVQLIVEFAKGLPGFAKISQPDQITLLKACSSEVMMLRAARRYDAASDSILFANNQAYTRDNYRKAGMAYVIEDLLHFCRCMYSMALDNIHYALLTAVVIFSDRPGLEQPQLVEEIQEYYLNTLRIYILNQLSGSARSSVIYGKILSILSELRTLGMQNSNMCISLKLKNRKLPPFLEEIWDV | – | – | 21.1 fold | 1005.1 fold |
| V107I/R175E: CfEcR-DEF LBD double mutant, V107I and R175E (protein, listed as Choristoneura fumiferana) LTANQQFLIARLIWYQDGYEQPSDEDLKRITQTWQQADDENEESDTPFRQITEMTILTVQLIVEFAKGLPGFAKISQPDQITLLKACSSEVMMLRVARRYDAASDSILFANNQAYTRDNYRKAGMAYVIEDLLHFCRCMYSMALDNIHYALLTAVVIFSDRPGLEQPQLVEEIQEYYLNTLRIYILNQLSGSARSSVIYGKILSILSELRTLGMQNSNMCISLKLKNRKLPPFLEEIWDV | – | – | 386.4 fold | 1194.4 fold |
